Laboratory results: patent US20200317768A1 (published 2020)

How the values were obtained:
Assay in all cases: SPR (BIACORE); KD of SG1 / KD of variant;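 further: relative to parent M103205H795-SG1 carrying the SG1 human heavy chain constant region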
[1] = target: T1, cynomolgus monkey FcγRIIa2 extracellular domain with C-terminal His-tag (cynomolgus monkey)
T1 construct: also called cyno FcgRIIa2; cynoFcγRIIa2
T1 chain: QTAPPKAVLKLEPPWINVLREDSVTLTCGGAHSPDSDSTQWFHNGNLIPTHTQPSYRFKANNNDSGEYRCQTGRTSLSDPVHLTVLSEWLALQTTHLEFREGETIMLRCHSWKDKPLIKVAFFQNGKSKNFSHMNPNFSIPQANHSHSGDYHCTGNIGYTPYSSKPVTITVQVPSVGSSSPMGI

[2] = target: T2, cynomolgus monkey FcγRIIa1 extracellular domain with C-terminal His-tag (cynomolgus monkey)
T2 construct: also called cyno FcgRIIa1; cynoFcγRIIa1
T2 chain: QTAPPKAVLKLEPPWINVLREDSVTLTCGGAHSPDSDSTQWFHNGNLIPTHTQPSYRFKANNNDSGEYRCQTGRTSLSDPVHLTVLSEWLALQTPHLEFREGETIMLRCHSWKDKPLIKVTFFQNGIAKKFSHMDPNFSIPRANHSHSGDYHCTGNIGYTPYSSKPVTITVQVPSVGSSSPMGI

[3] = target: T3, human FcγRIIIaV extracellular domain with C-terminal His-tag (human, UniProt P08637 17-208)
T3 construct: also called human FcgRIIIaV
T3 sequence (P08637 17-208 F176V): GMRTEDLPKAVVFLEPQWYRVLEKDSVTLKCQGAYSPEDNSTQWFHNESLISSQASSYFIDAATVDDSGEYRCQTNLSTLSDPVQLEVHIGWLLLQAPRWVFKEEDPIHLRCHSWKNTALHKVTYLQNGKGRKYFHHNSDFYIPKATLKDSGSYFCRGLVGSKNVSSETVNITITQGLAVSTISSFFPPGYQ

[4] = target: T4, human FcγRIIb extracellular domain with C-terminal His-tag (human, UniProt P31994 43-217)
T4 construct: also called human FcgRIIb
T4 sequence: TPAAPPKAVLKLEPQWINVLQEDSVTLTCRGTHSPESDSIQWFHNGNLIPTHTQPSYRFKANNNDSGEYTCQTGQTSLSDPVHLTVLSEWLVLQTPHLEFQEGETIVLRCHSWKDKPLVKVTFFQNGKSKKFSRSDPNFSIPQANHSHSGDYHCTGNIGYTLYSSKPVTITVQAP

KD fold (SG1 = 1) [1]: 1 fold
KD fold (SG1 = 1) [2]: 1 fold
KD fold (SG1 = 1) [3]: 1 fold
KD fold (SG1 = 1) [4]: 1 fold
B1: MS_M103205H795-SG1/M103202L889-SK1 (antibody, human IgG1, kappa)
heavy: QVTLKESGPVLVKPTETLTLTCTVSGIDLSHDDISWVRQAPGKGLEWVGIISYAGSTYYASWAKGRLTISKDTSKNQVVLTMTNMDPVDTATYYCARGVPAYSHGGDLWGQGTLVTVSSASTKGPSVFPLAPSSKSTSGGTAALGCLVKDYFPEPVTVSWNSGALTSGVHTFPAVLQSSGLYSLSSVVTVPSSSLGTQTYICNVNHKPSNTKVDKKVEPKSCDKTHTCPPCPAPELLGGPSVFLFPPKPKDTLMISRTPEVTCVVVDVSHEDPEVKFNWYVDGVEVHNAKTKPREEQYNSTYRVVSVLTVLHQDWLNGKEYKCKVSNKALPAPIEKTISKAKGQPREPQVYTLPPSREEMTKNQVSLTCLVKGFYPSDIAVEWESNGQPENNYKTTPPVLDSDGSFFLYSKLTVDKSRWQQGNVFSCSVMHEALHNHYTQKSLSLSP
light: DIVMTQSPATLSLSPGERATLSCTSSQSVYHANWLSWFQQKPGQPPKLLIYWASTLAYGVPSRFSGSGSGTDFTLTISSLQPEDAATYYCAGGYGGGRYAFGQGTKVEIKRTVAAPSVFIFPPSDEQLKSGTASVVCLLNNFYPREAKVQWKVDNALQSGNSQESVTEQDSKDSTYSLSSTLTLSKADYEKHKVYACEVTHQGLSSPVTKSFNRGEC
notes: Parent antibody of the Fc variants; also called MS1032LO06-SG1
